Data from publication PMC8930179.

Target: B38-CAP
Assay: SEC

Q: B38-CAP (enzyme) was tested. Which stoichiometry N did it give?
A: 2
